Source: patent US20260070986A1 (AFFIMED, published 2026)

Assays:
[1] = molecular target: T1, human CD16A (158F) on transfected CHO cells (cAg_34) (human, UniProt P08637 17-254); experiment: flow cytometry on huCD16A-transfected CHO cells (cAg_34), one-site fit of MFI, experiment 3
T1 construct: Exact cell-anchored construct not described; also called huCD16A
Method: After washing in FACS buffer, cells were incubated in 50 μL FACS buffer without antibodies or with titrated antibodies starting at a concentration of 100 μg/mL followed by ten 5-fold serial dilutions for 30 min on ice in the dark. After washing twice, cells were incubated with APC-conjugated goat anti-human IgG (H+L)-APC (Dianova, cat. 109-136-088) for 30 min on ice in the dark. […] After washing, binding was measured by flow cytometry and mean fluorescence intensities (MFI) of cell samples were calculated and corrected for background staining using control cells stained with secondary antibodies only.
Equilibrium dissociation constants (KD) of antibody binding were calculated by plotting MFI values and fitting a non-linear regression model for one-site binding to hyperbolic dose-response curves using GraphPad Prism.

[2] = molecular target: T2, recombinant human FcγRIIA (CD32A), biotinylated (human, UniProt P12318 34-218, limits assumed, site-directed biotinylation at AviTag); experiment: SPR (Biacore), 37 °C, biotin-captured human CD32A as ligand, steady-state plot; left-hand column, no heading on the sheet
T2 construct: also called human CD32A
T2 sequence (looked up): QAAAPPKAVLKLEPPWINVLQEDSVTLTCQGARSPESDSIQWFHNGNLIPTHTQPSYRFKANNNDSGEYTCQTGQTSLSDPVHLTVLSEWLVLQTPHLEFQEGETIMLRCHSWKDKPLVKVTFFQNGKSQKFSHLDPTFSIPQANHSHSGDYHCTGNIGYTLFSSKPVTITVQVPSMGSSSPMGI
Method: FIG. 21: SPR interaction analysis of antibody binding to CD32. […] Affinity parameters were evaluated for interaction with receptors using a Steady State Binding model.

[3] = molecular target: T3, recombinant murine FcγRIV (CD16-2), biotinylated (murine, UniProt A0A0B4J1G0 21-203, biotinylated (site not stated)); experiment: SPR (Biacore), 37 °C, biotin-captured murine CD16-2 as ligand, steady-state plot; left-hand column, no heading on the sheet
T3 construct: also called murine CD16-2; mouse CD16-2; not shown: biotinylation or purification tag (AviTag according to our card)
T3 sequence: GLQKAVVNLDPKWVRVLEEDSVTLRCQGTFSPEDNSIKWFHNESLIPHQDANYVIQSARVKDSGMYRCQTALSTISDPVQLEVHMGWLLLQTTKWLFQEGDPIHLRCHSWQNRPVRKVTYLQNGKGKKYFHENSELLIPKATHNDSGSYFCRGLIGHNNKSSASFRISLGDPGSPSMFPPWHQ
Method: FIG. 20: SPR interaction analysis of antibody binding to CD64 and murine CD16-2. […] Affinity parameters were evaluated for interaction with receptors using a Steady State Binding model.

T1 sequence (P08637 17-254 limits assumed): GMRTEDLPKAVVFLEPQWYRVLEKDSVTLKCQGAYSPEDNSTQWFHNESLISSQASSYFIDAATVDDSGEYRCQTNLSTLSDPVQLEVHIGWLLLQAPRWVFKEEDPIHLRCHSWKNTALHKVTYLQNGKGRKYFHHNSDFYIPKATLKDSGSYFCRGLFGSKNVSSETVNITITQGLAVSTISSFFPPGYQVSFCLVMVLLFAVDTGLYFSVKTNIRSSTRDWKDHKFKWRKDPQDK

B1: scFv-IgAb_268 (CD123-1xCD16a1) (bispecific antibody)
heavy: QVQLQQSGAEVKKPGASVKVSCKASGYTFTDYYMKWVKQSHGKSLEWMGDIIPSNGATFYNQKFKGKATLTVDRSTSTAYMELSSLRSEDTAVYYCARSHLLRASWFAYWGQGTLVTVSSASTKGPSVFPLAPSSKSTSGGTAALGCLVKDYFPEPVTVSWNSGALTSGVHTFPAVLQSSGLYSLSSVVTVPSSSLGTQTYICNVNHKPSNTKVDKKVEPKSCDKTHTCPPCPAPEFEGGPSVFLFPPKPKDTLMISRTPEVTCVVVAVSHEDPEVKFNWYVDGVEVHNAKTKPREEQYNSTYRVVSVLTVLHQDWLNGKEYKCKVSNKALPAPIEKTISKAKGQPREPQVYTLPPSREEMTKNQVSLTCLVKGFYPSDIAVEWESNGQPENNYKTTPPVLDSDGSFFLYSKLTVDKSRWQQGNVFSCSVMHEALHNHYTQKSLSLSPGGGGGSGGGGSGGGGSGGGGSGGGGSGGGGSSYELTQPLSVSVALGQTARITCGGNNIGSKSVHWYQQKPGQAPVLVIYQDKKRPSGIPERFSGSNSGNTATLTISRAQAGDEADYYCQVWDDYIVLFGCGTKLTVLGGSGGSGGSGGSGGSGGSGGSQVQLVQSGAEVKKPGASVKVSCKASGYTFTNYYMQWVRQAPGQCLEWMGIINPSGGVTSYAQKFQGRVTMTRDTSTSTVYMELSSLRSEDTAVYYCARGSAYYYDFADYWGQGTLVTVSS
light: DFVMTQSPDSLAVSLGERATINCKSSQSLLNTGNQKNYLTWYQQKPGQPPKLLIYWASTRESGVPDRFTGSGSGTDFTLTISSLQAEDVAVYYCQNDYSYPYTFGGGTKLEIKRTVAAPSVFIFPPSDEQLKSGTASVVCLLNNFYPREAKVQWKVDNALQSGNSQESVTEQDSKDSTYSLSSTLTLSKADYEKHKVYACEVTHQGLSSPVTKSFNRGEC
notes: also called AFM28; CD123xCD16A scFv-IgAb_268
- Kd [1]: 23.5 nM
- binding result [2]: no binding
- binding result [3]: no binding
